B1: TPR t1 (parent)
chain: GACCAAUCUGCCCUCAGAGCUCGAGAACAUCUUCGGAUGCAGAGGAGGCAGGCUUCGGUGGCGCGAUAGCGCCAACGUCCUCAACCUCCAAUGCAUCCCACCACAUGAUGAUGCCUGAAGAGCCUUGGUUUUUUG

Variants of B1 are the subject of this data set. Kind of data set: polymerase ribozyme fitness, log enrichment relative to wild type (log ratio); higher = more active; in vitro selection for triplet polymerase activity. The method in brief:
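For each subunit of a heterodimeric triplet polymerase ribozyme, a mutant library was built by PCR and transcribed, then taken through a single in vitro selection round in triplicate. Selection involved annealing to a biotinylated primer, the partner subunit and triplets, incubation frozen at −7 °C, gel excision of extended constructs, capture on streptavidin beads and RT-PCR. Genotypes were retained after Illumina sequencing of inputs and outputs only with ≥10 input reads and ≥1 read in each output. Fitness is defined as the logarithm of a genotype's enrichment relative to wild-type enrichment, using inverse-variance-weighted averages across replicates, with the logarithm taken to base 2.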
In the case of GAUCAAUCUGCCCUCAGAGCUCGAGAACAUCUUCGGAUGCAGAGGAGGCAGGCUUCGGUGGCGCGAUAUCGCCAACGUCCUCAACCUCCAAUGCAUCCCACCACAUGAUGAUGCCUGAAGGGCCAUGGUUUUUUG [C3U G69U A121G U125A], the “polymerase ribozyme fitness (log ratio)” value came out at 2.91.

For GACCAAUCUGCCCUCAGAGCUCGAGGACAUCUUCGGAUGCAGAGGAGGCAGGCAUCGGUGGCGCGAUAGCGCCAACGUCCUCAACCUCCAAUGCAUCCCACCACAUGGUGAUGCCUGAAGAGCCUUGGUUUUUUG [A26G U54A A108G], the “polymerase ribozyme fitness (log ratio)” value is -4.49.

Take GACCAAUCUGCCCUCAGAGCUCGAGAACAUCUUCGGAUGCAGAGGAGGCAGGCUUCGGUGACGCGAUAGCGCCAACGUUCUCAACCUCCAAUGCAUCCCACCACAUGAUGAUGCAUGAAAAGCCUUGGUUUUUUG [G61A C79U C115A G120A]: the “polymerase ribozyme fitness (log ratio)” value was -0.74.

Take GACCAAUCUUCCCUCAGAGCUCGAGAACAUCUUCGGAUGCAGAGGAGGCAGGCUUCGGUGGCGCGAUAGCGCCAACGUCCUCAACCUCCAAUGCAUCCCACCACCUGAUGAUGCCUGAAGAGCCUUGGUUUUUUG [G10U A105C]: the “polymerase ribozyme fitness (log ratio)” value was -2.95.

Take GACCAAUCUGCCCUCAGAGCUCGAGAGCAUCUUCGGAUGCAGAGGAGGCAGGCUUCGGUGGCGCGAUAGCGCCAACGUCCUCAACCUCCAAUGCAUCCCUCCACAUGAUGAUGCCUGAAUAGCCUUGGUUUUUUG [A27G A100U G120U]: the “polymerase ribozyme fitness (log ratio)” value is -3.21.

In the case of GACCAAUCUGCCCUCAGAGCUCGAGAACAUCUUCGGAUGCAGAGCAGGCAGGCUUCGGUGGCGCGAUAGCGCCAACGUCCUCAACCUCCAAUGCAUCCCACCACAAGAUGAUGCCUGAAGAGCCUUGGUUUUUUG [G45C U106A], the “polymerase ribozyme fitness (log ratio)” value is -1.34.

As for GACCAAUCUGCUCUCAGAGCUCGAGAACAUCUUCGGAUACAGAGGAGGCAGGCUUAGGUGGCGCGAUAGCACCAACGUCCUCAACCUCCAAUGCAUCCCACCACAUGAUGAUGCCUGAAGAGCCUUGGUUUUUUG [C12U G39A C56A G71A], the “polymerase ribozyme fitness (log ratio)” value is -4.31.

As to GACCAAUCUGGCCUCAGAGCUCGAGAGCUUCUUCGGAUGCAGAGGAGGCAGGCUUCGGUGGCGCGAUAGCGCCAACGUCCUCAACCUCCAAUGUAUCCCACCACAUGAUGAUGCCUGAAGAGCCUUGGUUUUUUG [C11G A27G A29U C94U], the “polymerase ribozyme fitness (log ratio)” value was -2.53.

In the case of GACCAAUCUGCCCUCAGAGCUCGAAAACAUCUUCGGAUGCAGAGGAGGCAGGCUUCGGUGGCGCGAUAGCGUCAACGUCCUCAACCUCCAAUGCAUCCCACCACAUGAUGAUGCCUGAAGAGCAUUGGUUUUUUG [G25A C72U C124A], the “polymerase ribozyme fitness (log ratio)” value was -6.83.

Turning to GACCAAUCUGCCCUCAGAGCUCGAGGACAUCUUCGGAUGCAGAGGAGGCAGGCUUCGGUGGCGCGAUAGCGCCGACGUCCUCAACCUCCAAUUCAUCCCACCACAAGACGAUGCCUGAAGAGCCUUGGUUUUUUG [A26G A74G G93U U106A U109C], the “polymerase ribozyme fitness (log ratio)” value was -3.92.

For the variant GACCAAUCUGCCCUCAGAGCUCGAGAACAUCUUCGGAUGCAGAGGAGGCAGGCUUCGGUGGCGUGAUAGCGCCAACGUCCUCAACCUCCAAUGCAUCCCACCACAUGAUGAUGCCGGAAGAGCCUUGGUUUUUUG [C64U U116G], the “polymerase ribozyme fitness (log ratio)” value was -1.88.

For GACCAAUCUGCCCUCAGAGCUCGAGAACAUCUUCGGAUGCAGAGGAGGCAGGCUGCGGUGGGGCGAUAGCGCCAACGUCCUCAACCUCCAAUGCAUCCCACCACAUGAUGAUGCCUGAAGAGCCUUGGUUUUUUG [U55G C62G], the “polymerase ribozyme fitness (log ratio)” value is -0.626.

Take GACCAAUCUGCCCUCAGAGCUCGAGAACAUCUUCGGAUGCAGAGGACGCAGGCUUCGGUGGCUCGAUAGCGCCAACGUCCUCAACCUCCAAUGCAUCCCACAACAUGAUGACUCCUGAAGAGCCUUGGUUUUUUG [G47C G63U C102A U112C G113U]: the “polymerase ribozyme fitness (log ratio)” value is -7.27.

Take GACCAAUCUGCCCUCAGAGCUCGAGAACAUCUUCUGAUGCAGAGGAGGCAGGCUUCGGUGGCGCGAUAGCGUCAACGUCCUCAACCUCCAAUGCAUCCCACCACAUGAUGAUGCCUGAAGAGCCUUGGUUUUUUG [G35U C72U]: the “polymerase ribozyme fitness (log ratio)” value was -4.43.

GACCAAUCUGCCCUCAGAGCUCGAGAACAUCUUCGGAUGCAGAGGAGGCAGGCUUUGGUGGCGCGAUAGCGCCAACAUCCUCAACCUCCAAUGCAUCCCACCACAUGAUGAUGCCUUAAAAGCAUUGGUUUUUUG [C56U G77A G117U G120A C124A]: the “polymerase ribozyme fitness (log ratio)” value is -1.34.

For GACCAAUAUGCCCUCAGAGCUCGAGAACAUCUUCGGAUGCAGAGGAGGCAGGCUUUGGUGGCGCGAUAGCGCCAACGUCCUCUACCUCCAAUACAUCCCACCACAUGAUGAUGCCUGAAGAGCCUUGGUUUUUUG [C8A C56U A83U G93A], the “polymerase ribozyme fitness (log ratio)” value was 0.0132.

For GACCAAUCUGCCCUCAGAGCUCGAGAACAUCUUCGGAUGCAGAUGAGGCAGGCUUCGGUGGCGCGAUAGCGCCAACGUCCUCAACCUCCUAUGCAUCCCACCACAUGAUGAUGCCUGAAGAGCCUUGGUUUUUUU [G44U A90U G135U], the “polymerase ribozyme fitness (log ratio)” value is -2.19.

For the variant GACCAAUCUGCGCUCAGAGCUCGAGAACAUCUUCUGAUGCAGAGGAGGCAGGCUUCGGUGGCGCGAUAGUGCCCACGUCCUCAACCUCCAAUGCAUCCCACCACAUGAUGAUGCCUGAAGAGGCUUGGUUUUUUG [C12G G35U C70U A74C C123G], the “polymerase ribozyme fitness (log ratio)” value was -5.14.

With GACCAAUCUGCCCUCAGAGCUCGAGAACAUCUUCGGAUGCAGAAUAGGCAGGCUUCGGUGGCGCGAUAGCGCCAACGUCCUCAACCUCCAAUACAUCCCACCACAUGAUGAUGCCUGAAGAGCCUUGGUUUUUUG [G44A G45U G93A], the “polymerase ribozyme fitness (log ratio)” value was -3.07.

GAACAAUCUGCCCUCAGAGCUCGAGAACAUCCUCGGAUGCAGAGGAGGCAGGCUUCGGUGGCGCGAUAACGCCAACGUCCUCAACCUCCAAUGCAUCCCACCACAUGAUGAUGCCUGAAAAGCCUUGGUUUUUUG [C3A U32C G69A G120A]: the “polymerase ribozyme fitness (log ratio)” value is -3.63.

Consider GACCAAUCUGCUCUCAGAGCGCGAGAACAUCUUCGGAAGCAGAGGAGGCAGGCUUCGGUGCCGCGAUAGCGCCAACGUCCUCAACCUCCAAUGCAUCCCACCUCAUGAUGACGCAUGGAGAGCCUUUGUUUUUUG [C12U U21G U38A G61C A103U U112C C115A A118G G127U], for which the “polymerase ribozyme fitness (log ratio)” value was -6.24.
